According to patent publication US20100254979A1 (CISTHERA, published 2010):
One block for each binder: values may come before it.

Experiments:
mouse PAI-1 = biological target: T1, mouse PAI-1 (mouse, UniProt P22777 23-402, limits assumed, n-terminal biotin label in the P-ELISA); assay: P-ELISA
T1 construct: also called murine PAI-1
T1 sequence (looked up): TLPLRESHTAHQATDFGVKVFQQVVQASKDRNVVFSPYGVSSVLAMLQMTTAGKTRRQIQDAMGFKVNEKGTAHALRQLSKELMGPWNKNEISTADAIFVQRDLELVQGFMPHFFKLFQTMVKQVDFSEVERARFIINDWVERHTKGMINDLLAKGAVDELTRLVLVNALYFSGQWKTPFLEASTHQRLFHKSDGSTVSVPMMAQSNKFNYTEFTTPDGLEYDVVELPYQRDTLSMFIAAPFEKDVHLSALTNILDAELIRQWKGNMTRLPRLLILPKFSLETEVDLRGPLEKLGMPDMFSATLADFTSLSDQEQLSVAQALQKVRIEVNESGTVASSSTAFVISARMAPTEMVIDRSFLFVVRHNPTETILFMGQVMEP

[1] = biological target: human PAI-1 (plasminogen activator inhibitor-1) (human, UniProt P05121 24-402, n-terminal biotin label in the P-ELISA); assay: cell-based or functional assay
Chain of human PAI-1 (plasminogen activator inhibitor-1) (P05121 24-402 limits assumed): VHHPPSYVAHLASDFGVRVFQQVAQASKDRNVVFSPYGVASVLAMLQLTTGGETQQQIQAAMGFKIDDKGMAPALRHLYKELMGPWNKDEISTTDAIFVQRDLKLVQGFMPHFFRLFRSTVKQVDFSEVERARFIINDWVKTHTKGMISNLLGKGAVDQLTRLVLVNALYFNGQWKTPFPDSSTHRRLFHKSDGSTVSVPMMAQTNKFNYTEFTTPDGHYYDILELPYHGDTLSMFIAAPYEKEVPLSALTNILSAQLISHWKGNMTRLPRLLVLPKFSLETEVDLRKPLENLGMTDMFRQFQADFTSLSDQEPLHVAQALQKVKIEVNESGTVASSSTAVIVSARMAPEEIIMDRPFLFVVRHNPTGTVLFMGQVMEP

[2] = biological target: PAI-1 (antigen of Example 11, species not stated) (Homo sapiens (Human)) (UniProt P05121); assay: biosensor kinetics, mAb captured on anti-human IgG surface at 5 densities, 25 C, global 1:1 fit
rat PAI-1 = biological target: T2, rat PAI-1 (rat, UniProt P20961 24-402, n-terminal biotin label in the P-ELISA); assay: P-ELISA: biotinylated PAI-1 (panel title: Rat PAI-1) on Neutravidin-coated plate, HRP-conjugated secondary antibody, O.D. 450
T2 sequence (looked up): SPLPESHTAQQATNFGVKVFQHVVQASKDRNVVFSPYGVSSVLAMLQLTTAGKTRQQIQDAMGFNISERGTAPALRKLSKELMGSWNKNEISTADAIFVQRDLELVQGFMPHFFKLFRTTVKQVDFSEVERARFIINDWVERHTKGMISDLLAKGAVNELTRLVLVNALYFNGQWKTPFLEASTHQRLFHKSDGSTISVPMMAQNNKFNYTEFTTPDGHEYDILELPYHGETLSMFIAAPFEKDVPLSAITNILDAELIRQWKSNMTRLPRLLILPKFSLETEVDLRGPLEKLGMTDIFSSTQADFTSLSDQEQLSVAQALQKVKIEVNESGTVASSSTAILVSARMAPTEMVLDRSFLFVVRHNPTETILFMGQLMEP
Description: All reagents are brought to room temperature (18-23° C.) and dilutions are made in Wash Buffer (1× TBS, 0.1% BSA, 0.05% Tween). Briefly, protocol steps are as follows: [0952] Add 100 μL of Neutravidin™ Pierce #31000 (0.5 μg/ml in TBS) to 96-well Immulon-4 plates. [0953] Incubate 1 hour at room temperature (RT). [0954] Wash wells 3 times with 200 μl Wash Buffer. [0955] Add 50 μL of biotinylated biomolecule (0.06 nM) Incubate 1 hour at RT. [0956] Wash plate 3 times in Wash Buffer. [0957] Add 100 μL of 1° Ab Incubate 30 min RT [0958] Wash plate 3 times in Wash Buffer. [0959] Add 50 μL of 2° Ab-HRP (1:10,000) Incubate 30 min RT [0960] Wash plate 4 times in Wash Buffer. [0961] Add 100 μl TMB Reagent (substrate). Incubate at room temperature. [0962] Add 100 μL of 2 M Sulfuric Acid to stop development of the substrate. [0963] Plates were read using a 450 nm filter with a 615-620 nm filter as the reference.
Binding of CT140 to rat, mouse, rabbit and human PAI-1 was determined by P-ELISA (see FIG. 12). The relative affinity of CT140 is human=rabbit>mouse>rat (FIG. 12A, FIG. 12B, FIG. 12C and FIG. 12D, respectively).

[3] = biological target: PAI-1 (antigen of Example 11, species not stated) (Homo sapiens (Human)) (UniProt P05121); assay: biosensor kinetics, 25 C, global 1:1 fit
[4] = biological target: PAI-1 (immobilised antigen of the P-ELISA of FIG. 13, species not stated); assay: P-ELISA on immobilised biotinylated PAI-1 (species not stated), A450; antibody spiked into plasma with EDTA
Chain of PAI-1 (immobilised antigen of the P-ELISA of FIG. 13, species not stated) (P05121 24-402): as the sequence (P05121 24-402 limits assumed) above

[5] = biological target: PAI-1 (immobilised antigen of the P-ELISA of FIG. 13, species not stated); assay: P-ELISA on immobilised biotinylated PAI-1 (species not stated), A450; antibody without plasma, with or without EDTA

- fold greater affinity relative to the parent mouse anti-PAI-1 (mouse PAI-1): > 10 fold
- EC50 (read off the curve) [1]: ~10 µg/mL
- Kd [2]: 0.015 nM
- koff [2]: 8e-06 s⁻¹
- kon [2]: 530000 M⁻¹ s⁻¹
- binding result (rat PAI-1): binds
B1: CT140 (humanized 33B8 anti-PAI-1 antibody, IgG4 with IgG1 hinge) (antibody, V domains shown)
VH: QVQLVQSGAEVKKPGASVKVSCKASGYTFTNYGMNWVRQAPGQGLEWMGWINTYTGEPTYTDDFKGRFTMTLDTSISTAYMELSRLRSDDTAVYYCAKDVSGFVFDYWGQGTLVTVSS
VL: DIVMTQSPDSLAVSLGERATINCKSSQSLLNIIKQKNCLAWYQQKPGQPPKLLIYWASTRESGVPDRFSGSGSGTDFTLTISSLQAEDVAVYYCQQYYSYPYTFGQGTKLEIKR
notes: The IgG4 hinge was replaced by that of IgG1; also called hP-1; humanized mAb CT140

- Kd [3]: 8.01 nM
- koff [3]: 0.00314 s⁻¹
- kon [3]: 393000 M⁻¹ s⁻¹
- EC50 (read off the curve) [4]: 0.4 µg/mL
- EC50 (read off the curve) [5]: 0.1 µg/mL
B2: murine monoclonal antibody 33B8 (MA-33B8) (antibody, V domains shown)
VH: QIQLVQSGPELKKPGKTVTISCKASGYTFTNYGMNWVKQAPGKGLKWMGWINTYTGEPTYTDDFKGRFAFSLDTSASTAYLQISNLKNEDTATYFCAKDVSGFVFDYWGQGTTVTVSS
VL: DIVMTQSPSSLAVSVGEKVTMSCKSSQSLLNIIKQKNCLAWYQQKPGQSPKLLIYWASTRESGVPDRFTGSGSGTDFTLTISSVKAEDLAVYYCQQYYSYPYTFGGGTKLEIK
